Measured values as given in article PMC5153404.

How the values were obtained:
[1] = target: Recombinant mature human gC1qR (residues 74-282) (UniProt Q07021); assay: ELISA; settings: 2.5 μg/well gh protein, 90 min at 37°C and 90 min at 4°C, parent: est. 100, read off a plot
[2] = target: Recombinant mature human gC1qR (residues 74-282) (UniProt Q07021); assay: ELISA; gC1qR coated at 0.25, 0.5 and 1 μg/well; 2.5 μg/well of gh module or substitution mutant; 90 min at 37°C and 90 min at 4°C; detected with anti-MBP monoclonal antibody

Recombinant mature human gC1qR (residues 74-282), sequence (Q07021 74-282): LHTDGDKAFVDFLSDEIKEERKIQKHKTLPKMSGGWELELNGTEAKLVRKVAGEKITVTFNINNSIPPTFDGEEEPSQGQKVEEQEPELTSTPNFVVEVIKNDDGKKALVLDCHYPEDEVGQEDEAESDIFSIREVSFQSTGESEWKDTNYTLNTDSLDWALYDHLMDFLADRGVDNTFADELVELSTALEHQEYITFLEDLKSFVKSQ
Recombinant globular head module of the human C1q C chain (ghC), MBP fusion (from UniProt P02747) L170E, sequence (P02747 115-245, stated change not applied): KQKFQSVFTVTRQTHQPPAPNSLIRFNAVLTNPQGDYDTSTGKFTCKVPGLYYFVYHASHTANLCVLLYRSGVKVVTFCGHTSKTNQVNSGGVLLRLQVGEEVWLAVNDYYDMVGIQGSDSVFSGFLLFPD
Recombinant globular head module of the human C1q C chain (ghC), MBP fusion (from UniProt P02747) R156E, sequence (P02747 115-245, stated change not applied): as above
Recombinant globular head module of the human C1q B chain (ghB), MBP fusion (from UniProt P02746) T175L, sequence (P02746 117-253, stated change not applied): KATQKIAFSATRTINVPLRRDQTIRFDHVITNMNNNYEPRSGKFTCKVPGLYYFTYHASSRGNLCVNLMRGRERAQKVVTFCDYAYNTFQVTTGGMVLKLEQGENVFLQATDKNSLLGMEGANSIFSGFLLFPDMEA
Recombinant globular head module of the human C1q B chain (ghB), MBP fusion (from UniProt P02746) R129A, sequence (P02746 117-253, stated change not applied): as above
Recombinant globular head module of the human C1q C chain (ghC), MBP fusion (from UniProt P02747) H101A, sequence (P02747 115-245, stated change not applied): as the sequence (P02747 115-245, stated change not applied) above

| Substance | percent of parent ([1]; 0.25 μg/well gC1qR coated) [% binding] | percent of parent ([1]; 0.5 μg/well gC1qR coated) [% binding] | percent of parent ([1]; 1 μg/well gC1qR coated) [% binding] | percent reduction in binding against wild-type ghA [2] [%] | percent reduction in binding against wild-type ghB [2] [%] |
| --- | --- | --- | --- | --- | --- |
| Recombinant globular head module of the human C1q B chain (ghB), MBP fusion (from UniProt P02746) T175L | 62 | 56 | 68 |  |  |
| ghA-R162A, MBP fusion (from UniProt P02745 23-245) (domain or fragment) |  |  |  | < 70 |  |
| Recombinant globular head module of the human C1q C chain (ghC), MBP fusion (from UniProt P02747) H101A | 51 |  | 79 |  |  |

Results, then the substance that gave them:

| percent of parent ([1]; 0.25 μg/well gC1qR coated) [% binding] | percent of parent ([1]; 0.5 μg/well gC1qR coated) [% binding] | percent of parent ([1]; 1 μg/well gC1qR coated) [% binding] | percent reduction in binding against wild-type ghA [2] [%] | percent reduction in binding against wild-type ghB [2] [%] | Substance |
| --- | --- | --- | --- | --- | --- |
| 81 | 110 | 110 |  |  | Recombinant globular head module of the human C1q C chain (ghC), MBP fusion (from UniProt P02747) R156E |
| 62 | 91 | 100 |  |  | Recombinant globular head module of the human C1q C chain (ghC), MBP fusion (from UniProt P02747) L170E |
| 27 | 33 | 30 |  |  | Recombinant globular head module of the human C1q B chain (ghB), MBP fusion (from UniProt P02746) R129A |
|  |  |  |  | 60 | ghB-H117D, MBP fusion (from UniProt P02746 28-253) (domain or fragment) |
